T1: AtAGO10+Hs-loop D795A (Arabidopsis, UniProt Q9XGW1 1-712+Q9UKV8:602-608+721-988, D795A;internal_change)
T1 sequence: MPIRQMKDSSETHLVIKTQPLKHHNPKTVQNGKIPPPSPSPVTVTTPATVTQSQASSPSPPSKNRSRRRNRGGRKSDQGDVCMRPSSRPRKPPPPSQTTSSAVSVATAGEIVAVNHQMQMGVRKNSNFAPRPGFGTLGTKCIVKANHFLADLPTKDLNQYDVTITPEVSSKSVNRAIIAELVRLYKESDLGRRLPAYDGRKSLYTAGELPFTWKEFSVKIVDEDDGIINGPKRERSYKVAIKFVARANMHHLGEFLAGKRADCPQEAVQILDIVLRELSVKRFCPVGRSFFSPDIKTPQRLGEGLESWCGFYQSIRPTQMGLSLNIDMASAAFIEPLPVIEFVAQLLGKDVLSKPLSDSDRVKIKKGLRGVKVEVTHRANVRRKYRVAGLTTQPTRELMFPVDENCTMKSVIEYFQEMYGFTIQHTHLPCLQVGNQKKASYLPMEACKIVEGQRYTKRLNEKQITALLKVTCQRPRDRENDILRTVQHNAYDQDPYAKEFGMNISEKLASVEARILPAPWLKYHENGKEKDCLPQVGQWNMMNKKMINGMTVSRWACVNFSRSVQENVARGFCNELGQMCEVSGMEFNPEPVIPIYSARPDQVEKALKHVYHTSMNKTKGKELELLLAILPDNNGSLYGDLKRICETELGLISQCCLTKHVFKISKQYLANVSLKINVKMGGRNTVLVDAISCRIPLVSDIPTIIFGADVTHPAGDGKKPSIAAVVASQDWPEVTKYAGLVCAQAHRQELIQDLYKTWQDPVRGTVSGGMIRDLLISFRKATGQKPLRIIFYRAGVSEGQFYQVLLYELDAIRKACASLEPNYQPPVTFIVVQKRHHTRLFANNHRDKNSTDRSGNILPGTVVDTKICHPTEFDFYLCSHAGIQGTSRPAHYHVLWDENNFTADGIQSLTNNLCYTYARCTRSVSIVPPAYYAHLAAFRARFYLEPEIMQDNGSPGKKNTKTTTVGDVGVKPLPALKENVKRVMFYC

T2: AtAGO10 D795A (wild-type PIWI loop) (Arabidopsis, UniProt Q9XGW1 1-988, D795A)
T2 sequence: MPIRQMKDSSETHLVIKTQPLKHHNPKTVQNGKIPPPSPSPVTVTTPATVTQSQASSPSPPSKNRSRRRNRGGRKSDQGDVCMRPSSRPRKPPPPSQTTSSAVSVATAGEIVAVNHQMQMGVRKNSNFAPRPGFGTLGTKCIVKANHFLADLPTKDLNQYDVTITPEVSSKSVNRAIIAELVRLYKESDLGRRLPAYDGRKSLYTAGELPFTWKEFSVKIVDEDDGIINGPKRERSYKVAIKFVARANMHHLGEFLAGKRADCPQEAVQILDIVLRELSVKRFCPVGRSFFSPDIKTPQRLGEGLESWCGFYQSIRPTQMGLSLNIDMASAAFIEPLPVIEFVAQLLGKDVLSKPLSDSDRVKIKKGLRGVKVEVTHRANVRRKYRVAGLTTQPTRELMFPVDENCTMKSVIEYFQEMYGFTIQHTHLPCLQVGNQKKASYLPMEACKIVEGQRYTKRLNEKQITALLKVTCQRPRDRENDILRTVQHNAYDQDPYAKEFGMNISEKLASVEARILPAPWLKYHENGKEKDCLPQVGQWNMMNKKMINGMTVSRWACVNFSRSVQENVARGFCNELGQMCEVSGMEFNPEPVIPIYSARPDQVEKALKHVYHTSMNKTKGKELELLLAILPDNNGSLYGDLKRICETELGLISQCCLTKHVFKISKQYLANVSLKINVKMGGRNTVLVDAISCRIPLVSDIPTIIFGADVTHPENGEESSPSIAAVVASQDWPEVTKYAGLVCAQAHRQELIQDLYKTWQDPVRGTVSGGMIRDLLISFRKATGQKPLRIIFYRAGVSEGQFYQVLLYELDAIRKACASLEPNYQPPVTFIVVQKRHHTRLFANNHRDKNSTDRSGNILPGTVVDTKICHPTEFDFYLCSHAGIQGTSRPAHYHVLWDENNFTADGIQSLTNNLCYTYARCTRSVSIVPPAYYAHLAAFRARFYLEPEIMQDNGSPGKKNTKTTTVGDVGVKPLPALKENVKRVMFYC


Assays:
Test in all cases: filter binding
AtAGO10+Hs-loop D795A = target: T1, AtAGO10+Hs-loop D795A
[1] = target: T2, AtAGO10 D795A (wild-type PIWI loop)
HsAGO2 = HsAGO2 (human, UniProt Q9UKV8 1-859)
HsAGO2+At-loop = HsAGO2+At-loop (human, UniProt Q9UKV8 1-601+Q9XGW1:713-720+609-859, internal_change)

Binder | Kd (AtAGO10+Hs-loop D795A) | Kd [1] | Kd (HsAGO2) | Kd (HsAGO2+At-loop)
guide RNA / 2-8 target (mixed) RNA 1: UGGAGUGUGACAAUGGUGUUU RNA 2: AAAAAAAAAAAAAACACUCCAAA | 0.38 ± 0.03 nM | 1.33 ± 0.14 nM | 0.086 ± 0.005 nM | 6.43 ± 0.24 nM
guide RNA / 2-21 target (mixed) RNA 1: UGGAGUGUGACAAUGGUGUUU RNA 2: AAACACCAUUGUCACACUCCAAA | 0.095 ± 0.012 nM | 0.04 ± 0.007 nM | 0.01 ± 0.001 nM | 0.005 ± 0.001 nM
